The source of these data is article doi:10.1101/473132.

In this assay the target is H3K9me3 mononucleosome with one disulfide bridge between H3 I62C and H4 A33C (oxidized) (X. laevis). Briefly: fluorescence polarisation. (In general: Polarisation of emitted light reports the rotation of a fluorescent probe.)

Swi6 (S. pombe HP1 protein), sequence (P40381 whole entry): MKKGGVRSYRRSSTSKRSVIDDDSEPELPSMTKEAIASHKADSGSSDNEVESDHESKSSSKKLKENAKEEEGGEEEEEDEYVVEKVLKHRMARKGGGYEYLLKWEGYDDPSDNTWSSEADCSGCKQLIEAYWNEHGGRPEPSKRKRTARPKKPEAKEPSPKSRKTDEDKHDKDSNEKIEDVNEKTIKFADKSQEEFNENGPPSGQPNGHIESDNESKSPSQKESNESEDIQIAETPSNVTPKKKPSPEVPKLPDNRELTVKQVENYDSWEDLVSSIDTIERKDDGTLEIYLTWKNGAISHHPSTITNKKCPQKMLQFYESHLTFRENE

In general, Kd refers to the free concentration of one partner at which half of the binding sites on the other are occupied at equilibrium, for simple one-to-one binding. Low values mean higher affinity, high ones lower affinity. Substance “Swi6 (S. pombe HP1 protein) (from UniProt P40381 1-328) (natural protein)” displayed a dissociation constant (Kd) of 300 nM.
